The text below walks through data of doi:10.1101/2024.02.27.582253, “Identification of an evolutionary conserved binding motif responsible for the recruitment of NMD factors to the UPF1 helicase” (bioRxiv, 2024).

The assay deals with T1, S. cerevisiae Upf1 helicase domain, Upf1-HD-His6 (residues 221-851) (S. cerevisiae, UniProt P30771 221-851).
T1 construct: Upf1 helicase domain, S. cerevisiae, residues 221-851; residues 224-851 seen in the final model; for the crystal it says only that the protein was purified on TALON resin; source: E. coli BL21 (DE3) Gold, purified (TALON, heparin, SEC); not shown: His6, C-terminal, kept
T1 sequence (looked up): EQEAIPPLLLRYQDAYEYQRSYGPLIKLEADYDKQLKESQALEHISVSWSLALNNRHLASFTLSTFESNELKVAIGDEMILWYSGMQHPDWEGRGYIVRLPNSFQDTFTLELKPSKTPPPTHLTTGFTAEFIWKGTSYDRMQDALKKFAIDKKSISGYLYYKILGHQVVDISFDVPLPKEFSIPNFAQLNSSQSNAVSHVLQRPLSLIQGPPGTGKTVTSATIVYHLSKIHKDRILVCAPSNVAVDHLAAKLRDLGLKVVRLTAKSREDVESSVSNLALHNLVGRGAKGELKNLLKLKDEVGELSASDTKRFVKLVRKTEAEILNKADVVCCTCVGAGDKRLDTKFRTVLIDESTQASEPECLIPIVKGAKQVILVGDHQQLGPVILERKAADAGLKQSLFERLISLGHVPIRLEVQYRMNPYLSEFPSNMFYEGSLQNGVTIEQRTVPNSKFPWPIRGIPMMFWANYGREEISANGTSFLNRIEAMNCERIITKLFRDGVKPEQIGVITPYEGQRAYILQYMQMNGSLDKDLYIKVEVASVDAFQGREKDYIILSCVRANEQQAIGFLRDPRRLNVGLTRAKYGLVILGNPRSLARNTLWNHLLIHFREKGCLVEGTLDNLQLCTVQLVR
The experiment in a line: ITC; His6-ZZ-Nmd4 proteins (260 µM full-length and arm, 330 µM PIN) injected into Upf1-HD-His6 (30-35 µM); 20°C; 100 mM Bis-Tris pH 6.5, 200 mM NaCl, 5 mM MgCl2, 5 mM 2-mercaptoethanol; one-binding site model. To be noted: both partners purified. (In general: Isothermal titration calorimetry measures the heat released or taken up as one component is titrated into another.)

B1: His6-ZZ-Nmd4 full-length protein (S. cerevisiae) (natural protein, UniProt Q12129 1-218, looked up)
chain: MTQYNFIIDASAFEKGLGNIKRWCSDCTEAVTLNFYIPTFTLNELDFLQQRRKSFAARESLKFIDRLDDSKFANLKVFIEFPEVLDIILWSDVMEHNDSSGKINIAKLPKRLKNLLKSCIYKCYLEGNEGLHWFLISEDPQIREMAMQCNIPSCSIVDVDSILSKDMNDKSFRESEKFNNMMLKNGTKEESENGREIIRTNFNKTVYASRGTGELWSP
notes: also called full-length Nmd4; His6-ZZ-Nmd4-FL; source: E. coli BL21 (DE3) Gold, purified (Ni-NTA, heparin, SEC; 3C digestion omitted); not shown: His6, N-terminal, kept; ZZ, N-terminal, kept
One may read the Kd as the equilibrium constant for the complex coming apart. Take B1: the Kd stood at 2100 nM.

B2: His6-ZZ-Nmd4 « arm » (residues 168-218) (domain or fragment, S. cerevisiae, UniProt Q12129 168-218, looked up)
chain: NDKSFRESEKFNNMMLKNGTKEESENGREIIRTNFNKTVYASRGTGELWSP
notes: Nmd4 C-terminal arm, S. cerevisiae, residues 168-218; also called « arm » region; source: E. coli BL21 (DE3) Gold, purified; not shown: His6, N-terminal, kept; ZZ, N-terminal, kept
B2: the Kd came to 1960 nM.
